According to US20250333498A1 (BIO THERA SOLUTIONS, published 2025):

Key:
human CLDN18.2 [1] = target: T1, human CLDN18.2 (human); assay: flow cytometry on KATOIII cells (CLDN18.2 positive), PE anti-human IgG-Fc secondary antibody
T1 construct: The cell line is named under assay; also called claudin-18 isoform 2
Procedure: (§1) Flow cytometry was used to detect the binding capacity of anti-CLDN18.2 antibodies and ADCs to cells expressing CLDN18.2, and the specificity of not binding to CLDN18.1 of the antibody was further detected. […] The mixture was incubated at 4° C. for 1 h and washed twice with PBS.

human CLDN18.1 = human CLDN18.1 (human, UniProt P56856 1-261); assay: flow cytometry on CHO-CLDN18.1 cells, PE anti-human IgG-Fc secondary antibody
Procedure: as §1

human CLDN18.2 [2] = target: T1, human CLDN18.2; assay: flow cytometry on CHO-CLDN18.2 cells; CHO-CLDN18.2 cells
Procedure: as §1

human CLDN18.2 [3] = target: T1, human CLDN18.2; assay: flow cytometry on KATOIII cells (item 3); KATOIII cells
Procedure: as §1

human CLDN18.2 [4] = target: T1, human CLDN18.2; assay: cell-based or functional assay
human CLDN18.2 [5] = target: T1, human CLDN18.2; assay: flow cytometry on KATOIII cells (item 2)
human CLDN18.2 [6] = target: T1, human CLDN18.2; assay: flow cytometry on CHO-CLDN18.2 cells
human CLDN18.2 [7] = target: T1, human CLDN18.2; assay: flow cytometry on KATOIII cells (item 3); KATOIII cells; item 3, compared with the humanized antibodies
Procedure: as §1

human CLDN18.2 [8] = target: T1, human CLDN18.2; assay: flow cytometry on KATOIII cells (item 2); KATOIII cells; item 2, compared with IMAB362
Procedure: as §1

Sequence of human CLDN18.1 (P56856 whole entry): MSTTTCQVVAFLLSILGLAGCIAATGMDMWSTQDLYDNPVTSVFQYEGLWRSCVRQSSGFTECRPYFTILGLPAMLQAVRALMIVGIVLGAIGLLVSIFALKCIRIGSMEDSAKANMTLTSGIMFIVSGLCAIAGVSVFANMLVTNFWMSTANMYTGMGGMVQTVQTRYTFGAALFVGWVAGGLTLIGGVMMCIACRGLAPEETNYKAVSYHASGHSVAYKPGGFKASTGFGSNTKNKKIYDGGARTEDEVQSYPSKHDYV

| Binder | EC50 (read off the curve) (human CLDN18.2 [1]) [nM] | binding result (human CLDN18.1) | EC50 (human CLDN18.2 [2]) [nM] | EC50 (human CLDN18.2 [3]) [nM] | ADCC Reporter Bioassay EC50 (luciferase, Jurkat-NFAT-luc-FcγRIIIa effector cells) (human CLDN18.2 [4]) [nM] | CDC IC50 (cell killing rate of CHO-CLDN18.2 cells with 5% human serum complement, CCK-8) (human CLDN18.2 [4]) [nM] | further results |
| --- | --- | --- | --- | --- | --- | --- | --- |
| chimeric antibody CH101H1-K-1 (antibody, human IgG1, kappa, V domains shown, Chimeric antibody (murine variable region + human constant region)) VH: EVQLQESGPELVKPGASVKISCKASGYSFTSYYIHWVKQRPGQGLEWIGWIYPGSGNTKYNEKFKGKATLTADTSSSTAYMQLSSLTSEDSAVYYCARGMDYGNYYLDYWGQGTTLTVSS VL: DIVMTQSHKFMSTSVGDRVSITCKASQDVGTAVAWYQQKPGQSPKLLIYWASTRHTGVPDRFTGSGSGTDFTLTISNVQSEDLADYFCQQYSSYLTFGAGTKLELKR | ~10 | – | – | – | – | – | – |
| humanized Antibody H239H-2a-K-6a (antibody, human IgG1, kappa, V domains shown, Humanized antibody (humanized variable region + human constant region)) VH: EVQLLESGGGLVQPGGSLRLSCAASGFTFSDYGMHWVRQAPGKGLEWVAYISRGRSTTYSTDTVKGRFTISRDSSKNTLYLQMNSLRAEDTAVYYCARGSYYGNAMDYWGQGTLVTVSS VL: DIVMTQSPDSLAVSLGERATINCKSSQSLLNSGNQRNYLTWYQQKPGQPPKLLIYWASTRESGVPDRFSGSGSGTDFTLTISSLQAEDVAVYYCQSAYSYPFTFGGGTKLEIKR | – | no binding (tested: about 330 nM) | 22.8 | 6.2 | – | – | – |
| humanized Antibody H239H-2b-K-6a (antibody, human IgG1, kappa, V domains shown, Humanized antibody (humanized variable region + human constant region)) VH: EVQLLESGGGLVQPGGSLRLSCAASGFTFSDYGMHWVRQAPGKGLEWVAYISRGRSTTYSTDTVKGRFTISRDNSKNTLYLQMNSLRAEDTAVYYCARGSYYGNAMDYWGQGTLVTVSS VL: DIVMTQSPDSLAVSLGERATINCKSSQSLLNSGNQRNYLTWYQQKPGQPPKLLIYWASTRESGVPDRFSGSGSGTDFTLTISSLQAEDVAVYYCQSAYSYPFTFGGGTKLEIKR | – | no binding (tested: about 330 nM) | 23.3 | 6.92 | 0.0625 | 0.291 | – |
| positive Antibody IMAB362 (antibody, V domains shown) VH: QVQLQQPGAELVRPGASVKLSCKASGYTFTSYWINWVKQRPGQGLEWIGNIYPSDSYTNYNQKFKDKATLTVDKSSSTAYMQLSSPTSEDSAVYYCTRSWRGNSFDYWGQGTTLTVSS VL: DIVMTQSPSSLTVTAGEKVTMSCKSSQSLLNSGNQKNYLTWYQQKPGQPPKLLIYWASTRESGVPDRFTGSGSGTDFTLTISSVQAEDLAVYYCQNDYSYPFTFGSGTKLEIKR | – | – | – | – | 0.795 | 5.87 | EC50 (human CLDN18.2 [5]): 8.08 nM; EC50 (human CLDN18.2 [6]): 30 nM |
| chimeric Antibody CH239H-2-K-6 (antibody, human IgG1, kappa, V domains shown, Chimeric antibody (murine variable region + human constant region)) VH: EVKLQESGGGLVKPGGSLKVSCAASGFTFSDYGMHWVRQAPEKGLEWVAYISRGRSTTYSTDTVKGRFTISRDSAKHTLFLQMTSLRSEDTAMYYCARGSYYGNAMDYWGQGTSVTVSS VL: DIVMTQSPSSLTVTAGERVTMSCKSSQSLLNSGNQRNYLTWYQQKPGQPPKLLIYWASTRESGVPDRFTGSGSGTDFTLTISSVQAEDLAVYFCQSAYSYPFTFGSGTKLEIKR | ~20 | – | 19.9 | – | – | – | EC50 (human CLDN18.2 [7]): 6.11 nM; EC50 (human CLDN18.2 [8]): 6.29 nM |
| chimeric antibody CH394H2-K-1 (antibody, human IgG1, kappa, V domains shown, Chimeric antibody (murine variable region + human constant region)) VH: EVKLQESGAELMKPGASVKLSCKATGYTFTGYWIEWVKQRPGHGLEWIGEILPGSGSTNYNEKFKGKATFTADTSSNTAYMQLSSLTTEDSAIYYCARAPLEGLRSGFAYWGQGTLVTVSA VL: DIVLTQSPASLAVSLGQRATISCRASESVDSYGNSFMHWYQQKPGQPPKLLIYRASNLESGIPARFSGSGSRTDFTLTINPVEADDVATYYCQQSNEDPRTFGGGTKLEIKR | ~20 | – | – | – | – | – | – |
